Laboratory results reported in the Human Domainome abundance scans (Beltran et al. 2025).
± gives the uncertainty stated by the source.

B1: RanBP-type and C3HC4-type zinc finger-containing protein 1, residues 369 to 411; numbered along this chain, Q9BYM8 (parent)
chain: YHCKTPDCKGWCFFEDDVNEFTCPVCFHVNCLLCKAIHEQMNC

Variants of: B1
Assay: abundance fitness (aPCA) (normalised: wild type 0, dead -1); higher = more abundant; growth selection in yeast, the domain comes from the species named
Details: Homo sapiens

Variant | abundance fitness
YHCKTPDCKGWCFFEDDVNEFTCPVCFHVKCLLCKAIHEQMNC [N30K] | -0.781 ± 0.12
YHCKTPDCKGWCFFEDDVNEFTCPVCFHVYCLLCKAIHEQMNC [N30Y] | -0.614 ± 0.14
YHCKTPDCKGWCFFEDDVNEFTCPVCFHVPCLLCKAIHEQMNC [N30P] | -0.784 ± 0.11
YHCKTPDCKGWCFFEDDVNEFTCPVCFHVNCLPCKAIHEQMNC [L33P] | 0.084 ± 0.058
YHCKTPDCKGWCFFEDDVNEFTCPVCFHVNCLICKAIHEQMNC [L33I] | -0.158 ± 0.18
YHCKTPDCKGWCFFEDDVNEFTCPVCFHVNCLNCKAIHEQMNC [L33N] | -0.116 ± 0.1
YHCKTPDCKGWCFFEDDVNEFTCPVCFHVNCLVCKAIHEQMNC [L33V] | -0.072 ± 0.045
YHCKTPDCKGWCFFEDDVNEFTCPVCFHVNCLKCKAIHEQMNC [L33K] | 0.138 ± 0.043
YHCKTPDCKGWCFFEDDVNEFTCPVCFHVNCLTCKAIHEQMNC [L33T] | -0.026 ± 0.057
YHCKTPDCKGWCFFEDDVNEFTCPVCFHVNCLECKAIHEQMNC [L33E] | -0.073 ± 0.046
YHCKTPDCKGWCFFEDDVNEFTCPVCFHVNCLDCKAIHEQMNC [L33D] | -0.148 ± 0.09
YHCKTPDCKGWCFFEDDVNEFTCPVCFHVNCLHCKAIHEQMNC [L33H] | -0.062 ± 0.055
YHCKTPDCKGWCFFEDDVNEFTCPVCFHVNCLFCKAIHEQMNC [L33F] | -0.313 ± 0.14
YHCKTPDCKGWCFFEDDVNEFTCPVCFHVNCLCCKAIHEQMNC [L33C] | -0.213 ± 0.078
YHCKTPDCKGWCFFEDDVNEFTCPVCFHVNCLYCKAIHEQMNC [L33Y] | -0.088 ± 0.22
YHCKTPDCKGWCFFEDDVNEFTCPVCFHVNCLWCKAIHEQMNC [L33W] | -0.262 ± 0.049
YHCKTPDCKGWCFFEDDVNEFTCPVCFHVNCLSCKAIHEQMNC [L33S] | -0.065 ± 0.045
YHCKTPDCKGWCFFEDDVNEFTCPVCFHVNCLMCKAIHEQMNC [L33M] | 0.033 ± 0.12
YHCKTPDCKGWCFFEDDVNEFTCPVCFHVNCLLCFAIHEQMNC [K35F] | -0.149 ± 0.059
YHCKTPDCKGWCFFEDDVNEFTCPVCFHVNCLLCDAIHEQMNC [K35D] | -0.156 ± 0.1

Variant | abundance fitness
YHCKTPDCKGWCFFEDDVNEFTCPVCFHVNCLLCHAIHEQMNC [K35H] | -0.023 ± 0.067
YHCKTPDCKGWCFFEDDVNEFTCPVCFHVNCLLCIAIHEQMNC [K35I] | -0.843 ± 0.18
YHCKTPDCKGWCFFEDDVNEFTCPVCFHVNCLLCCAIHEQMNC [K35C] | -0.069 ± 0.1
YHCKTPDCKGWCFFEDDVNEFTCPVCFHVNCLLCPAIHEQMNC [K35P] | -0.356 ± 0.063
YHCKTPDCKGWCFFEDDVNEFTCPVCFHVNCLLCLAIHEQMNC [K35L] | -0.321 ± 0.051
YHCKTPDCKGWCFFEDDVNEFTCPVCFHVNCLLCEAIHEQMNC [K35E] | -0.026 ± 0.057
YHCKTPDCKGWCFFEDDVNEFTCPVCFHVNCLLCMAIHEQMNC [K35M] | -0.026 ± 0.07
YHCKTPDCKGWCFFEDDVNEFTCPVCFHVNCLLCAAIHEQMNC [K35A] | -0.147 ± 0.046
YHCKTPDCKGWCFFEDDVNEFTCPVCFHVNCLLCGAIHEQMNC [K35G] | 0.067 ± 0.044
YHCKTPDCKGWCFFEDDVNEFTCPVCFHSNCLLCKAIHEQMNC [V29S] | -0.257 ± 0.086
YHCKTPDCKGWCFFEDDVNEFTCPVCFHTNCLLCKAIHEQMNC [V29T] | -0.108 ± 0.059
YHCKTPDCKGWCFFEDDVNEFTCPVCFHPNCLLCKAIHEQMNC [V29P] | -0.624 ± 0.11
YHCKTPDCKGWCFFEDDVNEFTCPVCFHQNCLLCKAIHEQMNC [V29Q] | -0.311 ± 0.074
YHCKTPDCKGWCFFEDDVNEFTCPVCFHDNCLLCKAIHEQMNC [V29D] | -0.414 ± 0.13
YHCKTPDCKGWCFFEDDVNEFTCPVCFHENCLLCKAIHEQMNC [V29E] | -0.34 ± 0.056
YHCKTPDCKGWCFFEDDVNEFTCPVCFHWNCLLCKAIHEQMNC [V29W] | -0.319 ± 0.074
YHCKTPDCKGWCFFEDDVNEFTCPVCFHANCLLCKAIHEQMNC [V29A] | -0.368 ± 0.046
YHCKTPDCKGWCFFEDDVNEFTCPVCFHCNCLLCKAIHEQMNC [V29C] | -0.265 ± 0.25
YHCKTPDCKGWCFFEDDVNEFTCPVCFHLNCLLCKAIHEQMNC [V29L] | -0.215 ± 0.058
YHCKTPDCKGWCFFEDDVNEFTCPVCFHGNCLLCKAIHEQMNC [V29G] | -0.562 ± 0.055

Variant | abundance fitness
YHCKTPDCKGWCFFEDDVNEFTCPVCFHRNCLLCKAIHEQMNC [V29R] | -0.105 ± 0.044
YHCKTPDCKGWCFFEDDVNEFTCPVCFHINCLLCKAIHEQMNC [V29I] | -0.453 ± 0.25
YHCKTPDCKGWCFFEDDVNEFTCPVCFHKNCLLCKAIHEQMNC [V29K] | -0.109 ± 0.095
YHCKTPDCKGWCFFEDDVNEFTCPVCFHFNCLLCKAIHEQMNC [V29F] | -0.54 ± 0.1
YHCKTPDCKGWCFFEDDVNEFTCPVCFHVNCLLMKAIHEQMNC [C34M] | -0.881 ± 0.087
YHCKTPDCKGWCFFEDDVNEFTCPVCFHVNCLLKKAIHEQMNC [C34K] | -0.623 ± 0.11
YHCKTPDCKGWCFFEDDVNEFTCPVCFHVNCLLSKAIHEQMNC [C34S] | -0.488 ± 0.052
YHCKTPDCKGWCFFEDDVNEFTCPVCFHVNCLLTKAIHEQMNC [C34T] | -0.547 ± 0.068
YHCKTPDCKGWCFFEDDVNEFTCPVCFHVNCLLGKAIHEQMNC [C34G] | -0.467 ± 0.044
YHCKTPDCKGWCFFEDDVNEFTCPVCFHVNCLLPKAIHEQMNC [C34P] | -0.174 ± 0.067
YHCKTPDCKGWCFFEDDVNEFTCPVCFHVNCLLQKAIHEQMNC [C34Q] | -0.494 ± 0.048
YHCKTPDCKGWCFFEDDVNEFTCPVCFHVNCLLAKAIHEQMNC [C34A] | -0.733 ± 0.05
YHCKTPDCKGWCFFEDDVNEFTCPVCFHVNCLLYKAIHEQMNC [C34Y] | -0.875 ± 0.16
YHCKTPDCKGWCFFEDDVNEFTCPVCFHVNCLLNKAIHEQMNC [C34N] | -0.536 ± 0.24
YHCKTPDCKGWCFFEDDVNEFTCPVCFHVNCLLFKAIHEQMNC [C34F] | -0.654 ± 0.11
YHCKTPDCKGWCFFEDDVNEFTCPVCFHVNCLLWKAIHEQMNC [C34W] | -1.02 ± 0.094
YHCKTPDCKGWCFFEDDVNEFTCPVCFHVNCLLHKAIHEQMNC [C34H] | -0.501 ± 0.059
YHCKTPDCKGWCFFEDDVNEFTCPVCFHVNCLLRKAIHEQMNC [C34R] | -0.683 ± 0.05
YHCKTPDCKGWCFFEDDVNEFTCPVCFHVNCLLEKAIHEQMNC [C34E] | -0.312 ± 0.044
